Results published in the supplement of paper PMC12764529.
± gives the half width of the 95% confidence interval.

How the values were obtained:
[1] = folding stability dG unfold from chymotrypsin proteolysis; higher = more stable
Method in brief: (§1)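 Designed mini-proteins with no cysteine and under 80 residues were kept only if AlphaFold2 dimer inter-PAE was above 15. In a PA-tagged cDNA display construct, they were digested with trypsin and chymotrypsin and then sequenced. K50 was inferred by Bayesian fitting of counts, and unfolding free energy was derived per protease or combined against a sequence-predicted unfolded-state K50 and a shared folded-state K50.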

[2] = folding stability dG unfold from trypsin proteolysis; higher = more stable
Method in brief: as §1

[3] = folding stability dG unfold (combined trypsin and chymotrypsin); higher = more stable
Method in brief: as §1

Row | Sequence | folding stability dG unfold [1] [kcal/mol] | folding stability dG unfold [2] [kcal/mol] | folding stability dG unfold [3] [kcal/mol]
1 | SAGGSAGGSAGGLRAKIVEIKEVKVKKLYKDPETNEWYEEEKTVKVIKIKIEPAKPGEKISAGGSAGGSAGG [r17_530_TrROS_Hall] | 1.14 ± 0.044 | 0.537 ± 0.08 | 0.947 ± 0.13
2 | SAGGSAGGSAGGLSPGDEIKIRIMIFYRDPGSGNMRPIQPFPITIKIEPPPPKPKDPNNNSAGGSAGGSAGG [r7_522_TrROS] | 3.82 ± 0.085 | 2.27 ± 0.1 | 3.08 ± 0.12
3 | SAGGSAGGSAGGLTFRLPDGTRVRVRVELNEDGELRITVEVEPLPPPPPKVEFYSEEELKSAGGSAGGSAGG [r7_660_TrROS_Hall] | 3.06 ± 0.08 | 2.72 ± 0.076 | 2.92 ± 0.12
4 | SAGGSAGGSAGGLWLTFNFRLTFFNPDGQAMEIEIPIEIRIPPPPVTVPDPDGEEYKYDSAGGSAGGSAGGS [r10_330_TrROS] | 3 ± 0.069 | 2.39 ± 0.07 | 2.87 ± 0.18
5 | SAGGSAGGSAGGMAENLSPEQLRELAKELGLSEEDLEPGQVVRFRLPNGEVIEVRVEDESAGGSAGGSAGGS [r10_623_TrROS_Hall] | 0.372 ± 0.13 | 1.29 ± 0.033 | 0.913 ± 0.067
6 | SAGGSAGGSAGGMEKLSETVTETVEVTLTSGDKTYTFTVTTTTVVLPDGTVETLEVTLQPSAGGSAGGSAGG [r11_95_JUSTAS] | 3.42 ± 0.12 | 2.05 ± 0.1 | 2.81 ± 0.14
7 | SAGGSAGGSAGGMEVYRNPETGTLVFLFELEDGSYVAVTINPDGSVEVRVFDKDGRWVPSAGGSAGGSAGGS [r10_299_TrROS_Hall] | 3.507 ± 0.027 | 2.61 ± 0.064 | 3.03 ± 0.081
8 | SAGGSAGGSAGGMGPPPIETIVIEKPLSEEEYEALKKAYPDKKVTVSEIPGTPNKIATIESAGGSAGGSAGG [r17_254_JUSTAS] | -0.192 ± 0.098 | 0.363 ± 0.042 | 0.0243 ± 0.19
9 | SAGGSAGGSAGGMIAVLTYKDGTVRDFGPTASLEEILSIPADEIVRIEVRPVLPELGDLLSAGGSAGGSAGG [r7_190_TrMRF] | -0.859 ± 0.31 | 0.59 ± 0.018 | 0.251 ± 0.07
10 | SAGGSAGGSAGGMIIIIPTPKGTVALVIDENSDKPTLIEASPDEIPDLIEKGAKEVIILPSAGGSAGGSAGG [r7_266_TrMRF] | 1.22 ± 0.052 | 0.363 ± 0.072 | 0.932 ± 0.13
11 | SAGGSAGGSAGGMIIKINGKYYKIKKIEKNPNGKYTITTENGKKYEFKNVKIFSEEELKSAGGSAGGSAGGS [r10_1151_TrROS_Hall] | 4.19 ± 0.061 | 3.05 ± 0.18 | 3.86 ± 0.18
12 | SAGGSAGGSAGGMIKTKDGKVLEFKSLEEALAALKELGVDEVEIEELEPEGVVKVKVKPSAGGSAGGSAGGS [r10_1191_TrROS_Hall] | 1.34 ± 0.039 | 0.301 ± 0.03 | 1.11 ± 0.11
13 | SAGGSAGGSAGGMIKVTFKIPGKNETIEIDFDSEEELEEKFKELREKLGYNIEVVEIEESAGGSAGGSAGGS [r10_1087_JUSTAS] | 2.19 ± 0.12 | 2.19 ± 0.19 | 1.92 ± 0.2
14 | SAGGSAGGSAGGMILVQDKKTKKWYEIKPGESLENLEFPEGVKEVRIYVFNEDGELVELDSAGGSAGGSAGG [r7_763_TrROS_Hall] | 2.45 ± 0.027 | 1.39 ± 0.043 | 2.28 ± 0.12
15 | SAGGSAGGSAGGMITTGITVSATDPNSSTSYTVTVPSSVPSSTFPANTAVGSAALAKLLASAGGSAGGSAGG [r17_412_JUSTAS] | -0.225 ± 0.25 | -0.554 ± 0.19 | -0.449 ± 0.21
16 | SAGGSAGGSAGGMITVEVEVPGDEAEAEARREAIAEELAAEGHEDVPITVTFVSPEEAASAGGSAGGSAGGS [r10_1099_JUSTAS] | 0.388 ± 0.047 | 1.28 ± 0.11 | 0.64 ± 0.36
17 | SAGGSAGGSAGGMIVIEVERKEGEEERKEVIVIPNDPEKAEAEAKKLAEEGPVEKVTIKKESAGGSAGGSAG [r3_310_JUSTAS] | 1.3 ± 0.066 | 0.243 ± 0.11 | 1.04 ± 0.28
18 | SAGGSAGGSAGGMIVTLPKTGEVLLVPEEEIEAFLAALPESFPKEDVEVYEYSPEEEPLSAGGSAGGSAGGS [r10_13_JUSTAS] | 0.0515 ± 0.17 | 0.566 ± 0.044 | 0.253 ± 0.13
19 | SAGGSAGGSAGGMKIIKLEDDYYLIPFDSPEQLKAYTDIFEKLGLPVVVLPDGRLLVKGSAGGSAGGSAGGS [r10_1027_TrMRF] | 2.52 ± 0.026 | 2.39 ± 0.053 | 2.49 ± 0.054
20 | SAGGSAGGSAGGMKIPPSLLTEVKESIVPTPEGSTKITTVTAKVPGTGEVVTYTLTTPVASAGGSAGGSAGG [r7_348_JUSTAS] | -0.744 ± 0.31 | 0.0354 ± 0.032 | -0.242 ± 0.11
21 | SAGGSAGGSAGGMKKKKLKEGVEIEFFREGDYLYVTTKIPETGKEETKKVKKVPKDIPLSAGGSAGGSAGGS [r10_240_JUSTAS] | 0.298 ± 0.14 | -0.245 ± 0.45 | 0.22 ± 0.23
22 | SAGGSAGGSAGGMKLVITLKDPNSDKTYTVTLPIEDKSPEEVIQEIEEKLGVEVVEVKPESAGGSAGGSAGG [r7_590_JUSTAS] | 2.04 ± 0.021 | 2.06 ± 0.083 | 2.02 ± 0.06
23 | SAGGSAGGSAGGMKPGEKPEVEYRVRIYDADTGEWREVPLEDLKKLKLPPGAVVEIEKVSAGGSAGGSAGGS [r10_1121_TrROS_Hall] | 3.42 ± 0.067 | 2.01 ± 0.14 | 2.93 ± 0.15
24 | SAGGSAGGSAGGMKVIKLPGLTVEIEPGYSPSEPVKITITDPKTGKVTEYEIKIPPEELPSAGGSAGGSAGG [r7_834_JUSTAS] | 1.26 ± 0.021 | 0.915 ± 0.052 | 1.13 ± 0.042
25 | SAGGSAGGSAGGMKVYRIGPDLYLVENEDGSLRIYNRDTGKVFTFKPGETITITIPPELLSAGGSAGGSAGG [r7_299_TrROS_Hall] | 2.79 ± 0.059 | 2.18 ± 0.075 | 2.7 ± 0.11
26 | SAGGSAGGSAGGMLSTNVTRTITLTYFDPNGSKPIETQTVTVTTFVEIFQEPVGNWTAASAGGSAGGSAGGS [r10_50_JUSTAS] | 0.759 ± 0.21 | 0.789 ± 0.08 | 0.786 ± 0.15
